Results taken from article PMC10751915.
Where two headings read alike, the source gives them in different places.

Experiments:
[1] = target: FCGR3A (176Val/V158) (CD16a) (UniProt P08637)
[2] = target: FCGR1 (CD64) (UniProt P12314)
[3] = target: FCGR3A (176Phe/F158) (CD16a) (UniProt P08637)
[4] = target: FCGR2A (167H) (CD32a) (UniProt P12318)
[5] = target: FcRn (UniProt P55899)
[6] = target: FCGR2A (167R) (CD32a) (UniProt P12318)
[7] = target: FCGR3A (176Val/V158) (CD16a) (UniProt P08637); remark: listed apart in the source
[8] = target: FCGR1 (CD64) (UniProt P12314); remark: listed apart in the source
[9] = target: FCGR3A (176Phe/F158) (CD16a) (UniProt P08637); remark: listed apart in the source
[10] = target: FCGR2A (167H) (CD32a) (UniProt P12318); remark: listed apart in the source
[11] = target: FcRn (UniProt P55899); remark: listed apart in the source
[12] = target: FCGR2A (167R) (CD32a) (UniProt P12318); remark: listed apart in the source

UniProt P12314, sequence (P12314 16-292): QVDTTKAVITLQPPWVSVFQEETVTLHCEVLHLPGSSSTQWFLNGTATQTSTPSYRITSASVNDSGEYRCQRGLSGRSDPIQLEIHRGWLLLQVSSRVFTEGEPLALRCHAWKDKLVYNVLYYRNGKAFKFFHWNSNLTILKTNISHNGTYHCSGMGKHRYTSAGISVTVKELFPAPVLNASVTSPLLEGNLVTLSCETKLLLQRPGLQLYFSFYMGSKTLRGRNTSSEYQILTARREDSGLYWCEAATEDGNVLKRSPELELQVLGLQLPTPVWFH
UniProt P55899, sequence (P55899 24-297): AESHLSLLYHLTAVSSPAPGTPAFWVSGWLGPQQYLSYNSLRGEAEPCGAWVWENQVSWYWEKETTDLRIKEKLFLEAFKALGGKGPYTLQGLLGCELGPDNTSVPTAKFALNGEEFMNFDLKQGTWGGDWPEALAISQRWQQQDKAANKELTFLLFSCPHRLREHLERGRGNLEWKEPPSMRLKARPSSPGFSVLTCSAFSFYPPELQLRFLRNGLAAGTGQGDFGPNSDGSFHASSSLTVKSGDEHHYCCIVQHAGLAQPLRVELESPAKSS

IC50 [1]	IC50 [2]	IC50 [3]	IC50 [4]	IC50 [5]	IC50 [6]	IC50 [7]	IC50 [8]	IC50 [9]	IC50 [10]	IC50 [11]	IC50 [12]	Substance
95.1 nM	1.59 nM	53.3 nM	29.1 nM	5.2 nM	67.3 nM							KVA12.1 (WT, hIgG1) (from UniProt P01857)
						505 nM	6 nM	385 nM	137 nM	0.97 nM	286 nM	KVA12123 (YTE, hIgG1) (from UniProt P01857)
